Assay results published in patent US20260217833A1 (APTEVO RESEARCH AND DEVELOPMENT, published 2026).
Numbering of substitutions follows the chain as printed.

B1: CD4001071 (bispecific antibody)
Fc-Knob x PDL_5F9: EPKSSDKTHTCPPCPAPPAAAPSVFLFPPKPKDTLMISRTPEVTCVVVDVSHEDPEVKFNWYVDGVEVHNAKTKPREEQYNSTYRVVSVLTVLHQDWLNGKEYKCAVSNKALPAPIEKTISKAKGQPREPQVYTLPPSRDELTKNQVSLWCLVKGFYPSDIAVEWESNGQPENNYKTTPPVLDSDGSFFLYSKLTVDKSRWQQGNVFSCSVMHEALHNHYTQKSLSLSPGGGGSPSEVQLVESGGGLVKPGGSLRLSCAASGFTFSDYGMAWVRQAPGKGLEWVAFITSLAYIIYYADSVKGRFTISRDNAKNSLYLQMNSLRAEDTAVYYCARNYGSSPYYFDYWGQGTLVTVSSGGGGSGGGGSGGGGSGGGGSDIQMTQSPSSLSASVGDRVTITCRASQDINKFLSWYQQKPGKAPKLLIHYTSSLQPGVPSRFSGSGSGTDFTLTISSLQPEDFATYYCLQYDNLYTFGQGTKLEIK
CD40_5B9 x Fc-Hole x PDL_5F9: DVVMTQTPLSLPVSLGDQASISCRSSQSLVHYNGYTYLHWYLQKPGQSPKLLIYKVSNRFSGVPDRFSGSGSGTDFTLKISRVEAEDLGVYFCSQTTHVPLTFGAGTKLELRGGGGSGGGGSGGGGSGGGGSEVMLVESGGGLVKPGGSLKLSCAASGFTFSSYAMSWVRQTPERRLEWVASISSAGTYIYYPDSVKGRFTISRDNAKNILYLQMNSLRSEDTAMYYCARHGNGYDPLWYFDVWGAGTTVTVSSEPKSSDKTHTCPPCPAPPAAAPSVFLFPPKPKDTLMISRTPEVTCVVVDVSHEDPEVKFNWYVDGVEVHNAKTKPREEQYNSTYRVVSVLTVLHQDWLNGKEYKCAVSNKALPAPIEKTISKAKGQPREPQVYTLPPSRDELTKNQVSLSCAVKGFYPSDIAVEWESNGQPENNYKTTPPVLDSDGSFFLVSKLTVDKSRWQQGNVFSCSVMHEALHNRFTQKSLSLSPGGGGSPSEVQLVESGGGLVKPGGSLRLSCAASGFTFSDYGMAWVRQAPGKGLEWVAFITSLAYIIYYADSVKGRFTISRDNAKNSLYLQMNSLRAEDTAVYYCARNYGSSPYYFDYWGQGTLVTVSSGGGGSGGGGSGGGGSGGGGSDIQMTQSPSSLSASVGDRVTITCRASQDINKFLSWYQQKPGKAPKLLIHYTSSLQPGVPSRFSGSGSGTDFTLTISSLQPEDFATYYCLQYDNLYTFGQGTKLEIK
B2: CD4001072 (bispecific antibody)
Fc-Knob x PDL_5F9: B1 Fc-Knob x PDL_5F9
CD40_1D5 x Fc-Hole x PDL_5F9: DIVMSQSPSSLAVSVGEKVTMSCKSSQSLLFSVNQKNYLAWYQQKPGQSPKLLIYWASTRESGVPDRFTGSGSGTDFTLTIGSVKAEDLAVYYCQHYYSYPWTFGGGTKLEIKGGGGSGGGGSGGGGSGGGGSQVQLQQSGAELMNPGASVRISCKATGYTFSTSWIEWIKQRPGHGLEWIGEILPGSGSTNYNEKFKGKATFTADTSSNTAYMQLSSLTFEDSAVYYCARGDDGSYVRWYFDVWGAGTTVTVSSEPKSSDKTHTCPPCPAPPAAAPSVFLFPPKPKDTLMISRTPEVTCVVVDVSHEDPEVKFNWYVDGVEVHNAKTKPREEQYNSTYRVVSVLTVLHQDWLNGKEYKCAVSNKALPAPIEKTISKAKGQPREPQVYTLPPSRDELTKNQVSLSCAVKGFYPSDIAVEWESNGQPENNYKTTPPVLDSDGSFFLVSKLTVDKSRWQQGNVFSCSVMHEALHNRFTQKSLSLSPGGGGSPSEVQLVESGGGLVKPGGSLRLSCAASGFTFSDYGMAWVRQAPGKGLEWVAFITSLAYIIYYADSVKGRFTISRDNAKNSLYLQMNSLRAEDTAVYYCARNYGSSPYYFDYWGQGTLVTVSSGGGGSGGGGSGGGGSGGGGSDIQMTQSPSSLSASVGDRVTITCRASQDINKFLSWYQQKPGKAPKLLIHYTSSLQPGVPSRFSGSGSGTDFTLTISSLQPEDFATYYCLQYDNLYTFGQGTKLEIK
B3: CD4001075 (bispecific antibody)
CD40_1D5 x Fc-Knob: DIVMSQSPSSLAVSVGEKVTMSCKSSQSLLFSVNQKNYLAWYQQKPGQSPKLLIYWASTRESGVPDRFTGSGSGTDFTLTIGSVKAEDLAVYYCQHYYSYPWTFGGGTKLEIKGGGGSGGGGSGGGGSGGGGSQVQLQQSGAELMNPGASVRISCKATGYTFSTSWIEWIKQRPGHGLEWIGEILPGSGSTNYNEKFKGKATFTADTSSNTAYMQLSSLTFEDSAVYYCARGDDGSYVRWYFDVWGAGTTVTVSSEPKSSDKTHTCPPCPAPPAAAPSVFLFPPKPKDTLMISRTPEVTCVVVDVSHEDPEVKFNWYVDGVEVHNAKTKPREEQYNSTYRVVSVLTVLHQDWLNGKEYKCAVSNKALPAPIEKTISKAKGQPREPQVYTLPPSRDELTKNQVSLWCLVKGFYPSDIAVEWESNGQPENNYKTTPPVLDSDGSFFLYSKLTVDKSRWQQGNVFSCSVMHEALHNHYTQKSLSLSPG
CD40_1D5 x Fc-Hole x PDL_5F9: B2 CD40_1D5 x Fc-Hole x PDL_5F9
B4: CD4001067 (bispecific antibody)
PDL_5F9 x Fc-Knob: EVQLVESGGGLVKPGGSLRLSCAASGFTFSDYGMAWVRQAPGKGLEWVAFITSLAYIIYYADSVKGRFTISRDNAKNSLYLQMNSLRAEDTAVYYCARNYGSSPYYFDYWGQGTLVTVSSGGGGSGGGGSGGGGSGGGGSDIQMTQSPSSLSASVGDRVTITCRASQDINKFLSWYQQKPGKAPKLLIHYTSSLQPGVPSRFSGSGSGTDFTLTISSLQPEDFATYYCLQYDNLYTFGQGTKLEIKEPKSSDKTHTCPPCPAPPAAAPSVFLFPPKPKDTLMISRTPEVTCVVVDVSHEDPEVKFNWYVDGVEVHNAKTKPREEQYNSTYRVVSVLTVLHQDWLNGKEYKCAVSNKALPAPIEKTISKAKGQPREPQVYTLPPSRDELTKNQVSLWCLVKGFYPSDIAVEWESNGQPENNYKTTPPVLDSDGSFFLYSKLTVDKSRWQQGNVFSCSVMHEALHNHYTQKSLSLSPG
CD40_2H7 x Fc-Hole: DIVMTQSHKFMSTSVGDRVSITCKASQDVNTAVAWYQQKPGQSPKLLIYSASYRYTGVPDRFTGSGSGTDFTFTISSVQAEDLAVYYCQQHYSTPWTFGGGTKLEIKGGGGSGGGGSGGGGSGGGGSQVQLQQSGAELAKPGASVKMSCKASGYAFTTYWMHWVKQRPGQGLEWIGYINPTTGYTDYNQKFKDKATLTADKSSSTAYMQLSSLTSEDSAVYYCARWGLPPFAYWGQGTLVTVSAEPKSSDKTHTCPPCPAPPAAAPSVFLFPPKPKDTLMISRTPEVTCVVVDVSHEDPEVKFNWYVDGVEVHNAKTKPREEQYNSTYRVVSVLTVLHQDWLNGKEYKCAVSNKALPAPIEKTISKAKGQPREPQVYTLPPSRDELTKNQVSLSCAVKGFYPSDIAVEWESNGQPENNYKTTPPVLDSDGSFFLVSKLTVDKSRWQQGNVFSCSVMHEALHNRFTQKSLSLSPG
B5: CD4001076 (bispecific antibody)
PDL_5F9 x Fc-Knob: B4 PDL_5F9 x Fc-Knob
PDL_5F9 x Fc-Hole x CD40_2H7: EVQLVESGGGLVKPGGSLRLSCAASGFTFSDYGMAWVRQAPGKGLEWVAFITSLAYIIYYADSVKGRFTISRDNAKNSLYLQMNSLRAEDTAVYYCARNYGSSPYYFDYWGQGTLVTVSSGGGGSGGGGSGGGGSGGGGSDIQMTQSPSSLSASVGDRVTITCRASQDINKFLSWYQQKPGKAPKLLIHYTSSLQPGVPSRFSGSGSGTDFTLTISSLQPEDFATYYCLQYDNLYTFGQGTKLEIKEPKSSDKTHTCPPCPAPPAAAPSVFLFPPKPKDTLMISRTPEVTCVVVDVSHEDPEVKFNWYVDGVEVHNAKTKPREEQYNSTYRVVSVLTVLHQDWLNGKEYKCAVSNKALPAPIEKTISKAKGQPREPQVYTLPPSRDELTKNQVSLSCAVKGFYPSDIAVEWESNGQPENNYKTTPPVLDSDGSFFLVSKLTVDKSRWQQGNVFSCSVMHEALHNRFTQKSLSLSPGGGGSPSDIVMTQSHKFMSTSVGDRVSITCKASQDVNTAVAWYQQKPGQSPKLLIYSASYRYTGVPDRFTGSGSGTDFTFTISSVQAEDLAVYYCQQHYSTPWTFGGGTKLEIKGGGGSGGGGSGGGGSGGGGSQVQLQQSGAELAKPGASVKMSCKASGYAFTTYWMHWVKQRPGQGLEWIGYINPTTGYTDYNQKFKDKATLTADKSSSTAYMQLSSLTSEDSAVYYCARWGLPPFAYWGQGTLVTVSA
B6: CD4001069 (bispecific antibody)
PDL_5F9 x Fc-Knob: B4 PDL_5F9 x Fc-Knob
CD40_1D5 x Fc-Hole: B3 CD40_1D5 x Fc-Knob with W405S, L407A, Y446V, H474R, Y475F
B7: CD4001066 (PDL_5F9 x hFc x CD40_1D5) (bispecific antibody)
chain: EVQLVESGGGLVKPGGSLRLSCAASGFTFSDYGMAWVRQAPGKGLEWVAFITSLAYIIYYADSVKGRFTISRDNAKNSLYLQMNSLRAEDTAVYYCARNYGSSPYYFDYWGQGTLVTVSSGGGGSGGGGSGGGGSGGGGSDIQMTQSPSSLSASVGDRVTITCRASQDINKFLSWYQQKPGKAPKLLIHYTSSLQPGVPSRFSGSGSGTDFTLTISSLQPEDFATYYCLQYDNLYTFGQGTKLEIKEPKSSDKTHTCPPCPAPPAAAPSVFLFPPKPKDTLMISRTPEVTCVVVDVSHEDPEVKFNWYVDGVEVHNAKTKPREEQYNSTYRVVSVLTVLHQDWLNGKEYKCAVSNKALPAPIEKTISKAKGQPREPQVYTLPPSRDELTKNQVSLTCLVKGFYPSDIAVEWESNGQPENNYKTTPPVLDSDGSFFLYSKLTVDKSRWQQGNVFSCSVMHEALHNHYTQKSLSLSPGGGGSPSDIVMSQSPSSLAVSVGEKVTMSCKSSQSLLFSVNQKNYLAWYQQKPGQSPKLLIYWASTRESGVPDRFTGSGSGTDFTLTIGSVKAEDLAVYYCQHYYSYPWTFGGGTKLEIKGGGGSGGGGSGGGGSGGGGSQVQLQQSGAELMNPGASVRISCKATGYTFSTSWIEWIKQRPGHGLEWIGEILPGSGSTNYNEKFKGKATFTADTSSNTAYMQLSSLTFEDSAVYYCARGDDGSYVRWYFDVWGAGTTVTVSS
notes: ADAPTIR format, anti-PD-L1 scFv on N-terminus, anti-CD40 scFv on C-terminus; also called CD4001066 (1D5)

Each binder was assayed against T1, Human PD-L1 full-length (human, UniProt Q9NZQ7 19-290) (assay: flow cytometry, CHOK1SV/human PD-L1 cells).
T1 construct: also called PDL01021; CHOK1SV/huPDL1
T1 sequence (Q9NZQ7 19-290): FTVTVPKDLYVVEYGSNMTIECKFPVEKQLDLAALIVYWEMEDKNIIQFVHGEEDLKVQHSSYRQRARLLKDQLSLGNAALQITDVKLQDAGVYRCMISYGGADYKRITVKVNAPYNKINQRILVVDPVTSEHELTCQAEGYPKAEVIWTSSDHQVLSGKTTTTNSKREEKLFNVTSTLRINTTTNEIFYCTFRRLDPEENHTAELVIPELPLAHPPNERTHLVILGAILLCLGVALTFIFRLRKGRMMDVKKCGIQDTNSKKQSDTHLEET

Binding result, binds:
B1
B2
B3
B4
B5
B6
B7
